Assay results as given in paper PMC3549669 (Science signaling, 2012).

T1: GST-TBK1 (human, UniProt Q9UHD2 1-729)
T1 sequence (looked up): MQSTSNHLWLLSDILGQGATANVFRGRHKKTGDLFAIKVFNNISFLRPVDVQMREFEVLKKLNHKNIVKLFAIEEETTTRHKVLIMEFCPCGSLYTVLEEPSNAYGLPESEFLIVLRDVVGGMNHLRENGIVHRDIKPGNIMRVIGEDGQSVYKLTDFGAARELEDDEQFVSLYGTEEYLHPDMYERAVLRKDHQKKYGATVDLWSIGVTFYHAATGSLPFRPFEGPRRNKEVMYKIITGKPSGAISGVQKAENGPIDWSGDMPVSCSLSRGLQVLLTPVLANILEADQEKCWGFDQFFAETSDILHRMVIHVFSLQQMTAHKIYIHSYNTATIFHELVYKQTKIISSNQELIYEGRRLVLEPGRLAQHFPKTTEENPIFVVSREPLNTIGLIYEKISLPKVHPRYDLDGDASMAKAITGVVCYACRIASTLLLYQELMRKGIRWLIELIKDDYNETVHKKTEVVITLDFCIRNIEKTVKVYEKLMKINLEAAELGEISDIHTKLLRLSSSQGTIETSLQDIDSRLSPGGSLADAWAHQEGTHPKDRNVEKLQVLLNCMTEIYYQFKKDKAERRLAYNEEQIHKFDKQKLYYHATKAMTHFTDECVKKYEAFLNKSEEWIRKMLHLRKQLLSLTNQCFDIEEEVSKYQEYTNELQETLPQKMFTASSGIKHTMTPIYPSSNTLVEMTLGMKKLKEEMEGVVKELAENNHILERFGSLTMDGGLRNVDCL

T2: Flag-TBK1 (human, UniProt Q9UHD2 1-729)
T2 sequence (looked up): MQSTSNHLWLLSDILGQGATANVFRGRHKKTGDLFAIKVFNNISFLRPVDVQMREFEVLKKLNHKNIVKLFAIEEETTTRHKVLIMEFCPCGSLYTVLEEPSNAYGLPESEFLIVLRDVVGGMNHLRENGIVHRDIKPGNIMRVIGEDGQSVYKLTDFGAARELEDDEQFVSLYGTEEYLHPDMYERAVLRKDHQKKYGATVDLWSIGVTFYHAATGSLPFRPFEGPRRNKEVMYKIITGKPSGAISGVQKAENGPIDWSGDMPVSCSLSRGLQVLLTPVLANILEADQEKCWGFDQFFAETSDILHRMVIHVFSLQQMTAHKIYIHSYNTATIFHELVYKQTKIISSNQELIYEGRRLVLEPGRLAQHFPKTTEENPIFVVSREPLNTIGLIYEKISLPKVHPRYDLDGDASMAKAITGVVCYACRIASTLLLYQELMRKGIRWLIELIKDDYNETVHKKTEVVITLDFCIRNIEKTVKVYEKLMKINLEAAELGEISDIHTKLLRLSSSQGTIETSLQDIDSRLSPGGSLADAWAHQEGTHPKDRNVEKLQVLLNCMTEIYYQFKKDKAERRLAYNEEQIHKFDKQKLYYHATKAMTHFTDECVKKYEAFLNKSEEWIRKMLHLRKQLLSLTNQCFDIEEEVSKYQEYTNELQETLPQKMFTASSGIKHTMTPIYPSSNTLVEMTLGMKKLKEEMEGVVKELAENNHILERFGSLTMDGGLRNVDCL


Experiments:
GST-TBK1 = molecular target: T1, GST-TBK1; experiment: pull-down
SEC = molecular target: the molecule itself; experiment: SEC
Flag-TBK1 = molecular target: T2, Flag-TBK1; experiment: pull-down

| Binder | binding result (GST-TBK1) | binding result (Flag-TBK1) | binding result (SEC) |
| --- | --- | --- | --- |
| VTVGSLKTSAVPSTSTMSQEPELLISGMEKPLPLRTDFS (domain or fragment, human, UniProt Q86WV6 341-379, looked up) [His6-STING (341–379)] | binds | – | binds |
| VTVGSLKTSAVPSTSTMSQEPELLIAGMEKPLPLRTDFS (domain or fragment, human, UniProt Q86WV6 341-379, looked up) [His6-STING (341–379) S366A] | – | – | binds |
| VTVGSLKTSAVPSTSTMSQEPELLISGMEKPLPARTDFS (domain or fragment, human, UniProt Q86WV6 341-379, looked up) [His6-STING (341–379) L374A] | – | – | binds |

The next lines start with results.

| binding result (GST-TBK1) | binding result (Flag-TBK1) | Binder | binding result (SEC) |
| --- | --- | --- | --- |
| – | binds | VTVGSLKTSAVPSTSTMSQEPELLISGMEKPLPARTDFS (domain or fragment, human, UniProt Q86WV6 341-379, looked up) [GST-STING (341–379) L374A] | – |
| – | binds | VTVGSLKTSAVPSTSTMSQEPELLIAGMEKPLPLRTDFS (domain or fragment, human, UniProt Q86WV6 341-379, looked up) [GST-STING (341–379) S366A] | – |
| – | binds | VTVGSLKTSAVPSTSTMSQEPELLISGMEKPLPLRTDFS (domain or fragment, human, UniProt Q86WV6 341-379, looked up) [GST-STING (341–379)] | – |
| – | binds | VTVGSLKTSAVPSTSTMAQEPELLISGMEKPLPLRTDFS (domain or fragment, human, UniProt Q86WV6 341-379, looked up) [GST-STING (341–379) S358A] | – |
